# In patent publication US20220125947A1 (published 2022):
# T1: TCR gamma/delta constant region (TRGDC) (human, UniProt P0CF51 1-173; B7Z8K6 1-153)
# T1 chain (looked up) 1: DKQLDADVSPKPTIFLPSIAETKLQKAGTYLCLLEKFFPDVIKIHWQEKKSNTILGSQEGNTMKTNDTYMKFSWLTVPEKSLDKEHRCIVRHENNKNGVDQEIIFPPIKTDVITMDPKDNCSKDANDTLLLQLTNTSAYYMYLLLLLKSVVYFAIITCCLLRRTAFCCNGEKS
# T1 chain (looked up) 2: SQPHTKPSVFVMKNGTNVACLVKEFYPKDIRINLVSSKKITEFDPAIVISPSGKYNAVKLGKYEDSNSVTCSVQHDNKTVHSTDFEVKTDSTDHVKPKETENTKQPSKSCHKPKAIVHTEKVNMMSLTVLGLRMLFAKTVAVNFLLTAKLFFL
# Biological target: T1, TCR gamma/delta constant region (TRGDC)
# Assay: cell-based or functional assay
Binder,"CD25+ (Vg9+ cells), flow staining [%]","CD71+ (Vg9+ cells), flow staining [%]",Granzyme B; Luninex (supernatant),IFNγ; Luninex (supernatant),IL6; Luninex (supernatant),TNFα; Luninex (supernatant),"Vg9 T cell %, flow staining [%]"
"VG9B387 (antibody, human IgG1, lambda, V domains shown) VH: EVQLVESGAEVKKPGASVKVSCKASGFTFTGYYLQWVRQAPGQGLEWMGWINPNSGYTDYAQRFQDRVTMTRDTSINTAYMELSRLRSDDTAVYYCARLDDAFDVWGQGTMVTVSS VL: SYELTQDPAVSVALGQTVRITCQGDSLRNYYAIWYQQKPGQAPVLVIFGKNNRPSGIPDRFSGSSSGTTASLTITGTQAEDEADYYCNSRDSSGNHWVFGGGTKLTVLG",24.7,89.7,1470,746,5200,135,5.5
"VG9B386 (antibody, human IgG1, kappa, V domains shown) VH: EVQLVESGGGLVKPGGSLRLSCAASGFTFSSYSMIWVRQAPGKGLEWVSSIGSSSTYIYYADSVRGRFTISRDNAKTSLYLQMNSLRAEDTAMYFCARDGETGGFDYWGQGILVTVSS VL: EIVMTQSPGTLSLSPGERATLSCRASQSISRSYLAWYQQKPGQPPRLLIYGPSNRATGIPDRFSASGSGTDFTLTNSRLEPEDFAVYYCQQYGSLPLTFGGGTKVEIKR",29.7,97,2960,846,228,89,8.5
"VG9B112 (antibody, human IgG1, kappa, V domains shown) VH: QVQLQQSGPGLVKPSQTLSLTCAISGDSVSSNSAAWNWIRQSPSRGLEWLGGTYYRSKWFNNYAVSVKSRITINPDTSTNQFSLQLNSVTPADTAVYYCARGEWGLRDAFDIWGQGTMVTVSS VL: DIQMTQSPSFLSASVGDRVIITCRASQGIHSYLAWYQQKPGKVPKLLIYVASTLQSGVPSRFSGSGSGTEFTLTISSLQPEDFATYYCQQLNSYPWTFGQGTKLEIKR",23.4,91.8,1140,461,256,1260,7.9
"VG9B125 (antibody, human IgG1, kappa, V domains shown) VH: EVQLVESGGTLVQPGGSLRLSCAVSGFTFSSYDMNWVRQAPGKGLEWVSYISSSSTAKYYADSVKGRFTISRDNAKNSLYLQMNSLWDEDTAVYYCAREDIVVVTPILQHWGQGTTVTVSS VL: EIVMTQSPATLSLSPGERAILSCRASQSVSKDLAWYQQKPGQAPRLLIYDASNRATGIPARISGSGSGTDFTLTISSLEPEDFAVYYCQQRINWPLFTFGPGTKVEIKR",24.8,70.8,3760,1490,587,959,12.4

# Biological target: T2, γδ T cell receptor on human γδ T cells (human)
# T2 construct: Mixed population of primary cells; also called AG000003021 (γδ T cells)
# Assay: flow cytometry, dose-response binding at 37° C. on human γδ T cells
# Description: Binding of antibodies to human γδ T cells or SKW cell lines expressing Vγ9/Vδ2, Vγ9/Vδ2 or Vγ5/Vδ2 was carried out by flow cytometry. Briefly, the cells were centrifuged at 300×g for 5 minutes and the pellet was resuspended in 34 ml fresh media (in RPMI+10% FBS). 50 μL of the cells were then plated (44K cells/well) into assay plates. Samples were incubated for one hour at 37° C. in tissue culture (TC) incubator followed by wash steps by adding 100 μl FACS staining buffer. Secondary detention antibodies (A647 conjugated anti-human IgG Fc specific antibody (2 μg/mL) along with AF488 anti mouse CD3, clone OKT3 at 1 ug/mL) were added at 50 μL/well to appropriate wells according to the plate map. After incubating for 60 minutes at 37° C. in the TC incubator, cells were again washed as described above. This is followed by resuspension in 20 μL/well running buffer containing 1:1000 dilution of Sytox blue dead cell stain and the plates were run on iQue Screener.
# Gating and data analysis: Human anti-human Vγ9 antibody (VG9B2 mAb at 10 nM) was used to mark the gating of positive population. All cells were first gated for singlets on SCS-A vs. SCS-H dot plot, live/dead followed by CD3 positive population, and this subset of CD3 positive population was gated for Vγ9 positive binding using positive control mAb. Cells were also assessed for cell binding of control mAbs by RL1 (A647) Geomeans from the live cell population. Advanced metrics were used and normalization metrics were chosen to calculate fold over background wells containing secondary antibody alone (designated as ‘background’ within ForeCyt settings).
row,Binder,Max. Activity [fold over background]
1,"VG9B33 (antibody, human IgG1, kappa, V domains shown) VH: EVQLVESGGGLVKPGGSLRLSCAASGFTFSSYNMNWVRQAPGKGLEWVSSISTSSSYIYYADSVKGRFTISRDNAKNSLYLQMNGLRAEDTAVYYCARDTSVTKYPDTFDIWGQGTMVTVSS VL: DIVMTQSPSSLSASVGDRVTITCRASQDINNYLAWFQQKPGKVPNLLIYGASTLQSGVPSRFTGSGSGTDFTLTISSLQPEDVATYYCQKYNSAPFTFGPGTKVDIKR",2090
2,"VG9B403 (antibody, human IgG1, kappa) heavy: not shown light: DIVMTQSPGTLSLSPGDRATLSCRASQSVASSYLAWYQQKPGQSPRLLIYGASSRATGIPDRFSGSGSGTDFTLTISRLEPEDFAVYYCQQYGSSPPYTFGQGTKVEIKRTVAAPSVFIFPPSDEQLKSGTASVVCLLNNFYPREAKVQWKVDNALQSGNSQESVTEQDSKDSTYSLSSTLTLSKADYEKHKVYACEVTHQGLSSPVTKSFNRGEC",2390
3,"VG9B21 (antibody, human IgG1, kappa, V domains shown) VH: EVQLLESGGGLVKPGGSLRLSCAASGFSFSNYDMNWVRQAPRKGLEWVSSISSSSHYIYYADSLKGRFTISRDNAKNSLFLQMNSLRAEDTAVYYCARDRGVTTDYYYYALDVWGQGTMVTVSS VL: DIVMTQSPSSLSASVGDRVTITCRASQGIYNYLAWYQQKPGNVPKLLIYAASTLQSGVPSRFSGSGSGTDFSLTISSLQPEDFTTYYCQKYNRAPFTFGPGTKVDIKR",1670
4,"VG9B137 (antibody, human IgG1, kappa, V domains shown) VH: EVQLVESGGGLVKPGGSLRLSCAAFGITFSSYSMDWVRQAPGRGLEWVSSIGSSSSYIFYADSVKGRFTISRDNAKNSLYLQMNSLRAEDTAVYYCATSYSWNYGGAFDIWGQGTMVTVSS VL: not shown",2200
5,"VG9B162 (antibody, human IgG1, lambda, V domains shown) VH: QVQLVESGAEVTKPGASVKVSCKASGYTFTGDYMHWVRQAPGQGLEWMGWINPNSGYTNYAQKFQGRVTMTRDTSISTAYMELSRLRSDDTAVYYCAREGDAFDVWGQGTMVTVSS VL: QLVLTQSSSASGSPGQSVTISCTGTSSDVGGYNYVSWYQQHPGKAPKLMIYEVSKRPSGVPDRFSGSKSGNTASLTVSGLQAEDEADYYCNSYAGSNNFEVFGGGTKLTVLG",1860
6,"VG9B191 (antibody, human IgG1, lambda, V domains shown) VH: EVQLVQSGGGLVKPGGSLRLSCAASGFTFSRYSMNWVRQAPGKGLEGVSSISSSSSYIYYADSVKGRFTISRDNAKNSLYLQMNSLRAEDTAVYYCARDGPTVNWDYYFDLWGRGTLVTVSS VL: QSVLTQPPSVSAAPGQKVTISCSGSSSNIGNNYVSWYQQLPGTAPKLLIYDNNKRPSGIPDRFSGSKSGTSATLGITGLQTGDEADYYCGTWDSSLSTSVVFGGGTKLTVLG",2370
7,"VG9B67 (antibody, human IgG1, kappa, V domains shown) VH: EVQLVESGGGLVKPGGSLRLSCAASGFTFSSYTMNWVRQAPGKGLEWVSSISSSSSYIDYAESVKGRFTISRDNAKNSLYLQMNSLRAEDTAVYYCARDGDILATIRGSFDYWGQGTTVTVSS VL: DIVMTQTPLSLPVTPGEPASISCRSSQSLLDSDAGNTYLDWYLQKPGQSPQLLIYTLSYRASGVPDRFSGSGSGTDFTLKISRVEAEDVAIYYCMQRIEFPITFGQGTKVEIKR",2270
8,"VG9B127 (antibody, human IgG1, kappa, V domains shown) VH: QVQLVESGGGLVKPGGSLRLSCTASGFTFGAYTMNWVRQAPGKGLEWVSSISSSSSYIDFAESVKGRFTISRDNAKNSLYLQMISLRAEDTAVYYCARDGDIVSTIRGSFDYWGQGALVTVSS VL: EIVMTQSPLSLPVTPGEPASISCRSSQSLLDSDDGNTYLDWYLQKPGQSPQLLIYTLSYRASGVPDRFSGSGSGTDFTLKISRVEAEDVGIYYCMQRIEFPITFGQGTKVEIKR",2230
9,"VG9B152 (antibody, human IgG1, lambda, V domains shown) VH: EVQLVESGGGLVRPGGSLRLSCEASGFTFSSYSMIWVRQAPGKGLEWVSSISSSSDYIYNADSVKGRFTISRDNAKNSLYLQMNSLRAEDTAVYYCARDWELLGFDCWGQGTTVTVSS VL: SYELMQPPSVSVSPGQTASITCSGDKLGDKYACWYQQKPGQSPVLVIYQHNKRPSGIPERFSGSNSGKTATLTISGTQAMDEADYYCQAWDSTTVVFGGGTKLTVLG",1850
10,"VG9B44 (antibody, human IgG1, kappa, V domains shown) VH: QVQLQQSGPGLVKPSQTLSLTCAISGDSVSSNSAAWNWIRQSPSRGLEWLGRTYYRSKWYNDYPISVKSRISINPDTSKNQFSLQLNSVTPEDTAVYYCARESGSYYTDGFDIWGQGTMVTVSS VL: DIQMTQSPSFLSASVGDRVTITCRASQGISSYLAWYQQKPGKAPKLLIYAASTLQSGVPSRFSGSGSGTEFTLTISSLQPEDFATYYCQEFNSYPYTFGQGTKLEIKR",2320
11,"VG9B36 (antibody, human IgG1, kappa, V domains shown) VH: QVQLVESGGGLVKPGGSLRLSCASSGFTFSSYGMYWVRQAPGKGLEWVSSISTGSSYIYYADSVKGRFTISRDNAKNSLYLQMNSLRAEDTAVYYCARDKGLAVTGYIMDVWGQGTTVTVSS VL: EIVLTQSPSSLSASVGDRVTITCQASQDISNYLNWYQQKPGKAPKLLIYDASNLETGVPSRFSGSGSGTDFTFTISSLQPEDIAIYYCQQYDNLPMYTFGQGTKVEIKR",2410
12,"VG9B64 (antibody, human IgG1, kappa, V domains shown) VH: QVQLVESGPTLVKPTQTLTLTCTFSGFSLSISGVSVGWIRQPPGKALEWLALIYWNDDKRYSPSLQSRVTITKDTSKNQVVLTVTNMDSVDTATYYCVHSGQWLEGDAFDIWGQGTMVTVSS VL: not shown",1690
13,"VG9B402 (antibody, human IgG1, kappa) heavy: not shown light: DIQMTQSPSSVSASVGDRVTITCRASQGINSWLAWYQQKPGNAPKLLIYAASSLQSGVPSRFSGIGSGTDFIFTISSLQPEDFASYYCQQANSFPWTFGQGTKVDIKRTVAAPSVFIFPPSDEQLKSGTASVVCLLNNFYPREAKVQWKVDNALQSGNSQESVTEQDSKDSTYSLSSTLTLSKADYEKHKVYACEVTHQGLSSPVTKSFNRGEC",2250
